Reference: US20230079150A1, “METHODS FOR PREVENTION OR TREATMENT OF VIRUS-INDUCED ORGAN INJURY OR FAILURE WITH IL-22 DIMER” (priority 2020, published 2023)
Read-outs that look alike come from different tables or passages of the source.

What was measured:
[1] = system: Human umbilical vein endothelial cells (HUVEC); test: Glycocalyx quantification (WGA staining) in HUVECs with or without LPS; type: cell-based
Experimental: Human umbilical vein endothelial cells (HUVEC) were purchased from the American Type Culture Collection. Cells were initially grown in 2% gelatin-coated 10-cm plastic dishes using M200 medium supplemented with low serum growth supplement (LSGS) and penicillin/streptomycin in a cell culture incubator at 37° C. with 5% CO2 atmosphere. Cells were passaged by digestion in 0.25% trypsin in Hanks' Balanced Salt Solution (HBSS) after reaching 80% confluence. Cells were used for experiments between passages 1-3. For glycocalyx quantification, HUVECs were plated in 48-well plastic cell culture plates coated with 2% gelatin, at a confluence of approximately 80%. M200+LSGS+penicillin/streptomycin was supplemented with 1% bovine serum albumin (BSA) to support glycocalyx growth. Cells were cultured for 24 hours to allow glycocalyx development before LPS exposure.
After completion of the LPS exposure with or without F-652, HUVECs were fixed by addition of concentrated formaldehyde solution directly to the culture medium to yield a final formaldehyde concentration of 3.5%. […] Glycocalyx and nuclei (4′,6-diamidino-2-phenylindole) were imaged on an EVOS fluorescence microscope under identical conditions. […] ImageJ software was used to quantify glycocalyx fluorescence intensity overlaying the nuclei of each visible cell.

C57BL/6 mice [2] = test: LPS acute lung injury mouse model: BAL cell counts; type: in vivo; conditions: for BAL total cell counts: F-652 4 μg tail vein at 30 min
Experimental: (§1) After approval from the Tulane University, Institutional Animal Care and Use Committee (protocol ID 607), equal numbers of male and female, 6-8 week old C57BL/6 mice (Charles River Laboratories, Cambridge, Mass.) were given acute lung injury (ALI) via intra-tracheally administered LPS. After obtaining appropriate depth of anesthesia using isoflurane, the high-dose LPS group (HDG) received 100 μg of LPS administered intra-tracheally. Approximately 30 minutes after LPS administration, 4 μg of F-652 was administered via tail vein injection (n=11), then compared to animals receiving sham injection (n=8) with phosphate-buffered saline (PBS). In the low-dose LPS group (LDG), 33.3 μg of LPS was administered intra-tracheally. F-652 was again administered at 30 minutes (n=9) and compared to sham injected animals (n=9). The Interleukin-22:Fc (F-652) protein is a recombinant fusion protein (F-652) (Evive Biotech, Shanghai, China) with two human IL-22 molecules linked to the Fc portion of human immunoglobulin G2, which extends the half-life of the molecule.
Euthanasia and bronchoalveolar lavage (BAL) was carried out on post-injury day 4. After obtaining appropriate levels of anesthesia with inhaled isoflurane, the trachea was cannulated using a 26 gauge needle and BAL was performed with three successive washes using 1 mL of PBS. Next, a small segment of the left lower lobe was removed and saved for RNA isolation. Finally, 1 cc of 4% paraformaldehyde was injected to the lung for fixation.
The BAL fluid was then centrifuged at 500×gravity for 5 minutes. Cells were obtained from the BAL after centrifuge and cell counts performed. Cells were then affixed to glass slides and stained with Wright's stain. To quantify protein in the BAL supernatant, a Bradford protein assay (Bio-Rad Laboratories) was performed. Protein was quantified by measuring absorbance at 595 nm on a BMG Labtech FLUOstar Optima plate reader. In addition, the BAL supernatant was used to measure pro-inflammatory cytokines using a Milliplex Mouse Cytokine/Chemokine Magnetic Bead Panel (Millipore Sigma). The 32 cytokines measured included Eotaxin, Granulocyte Colony-Stimulating Factor (G-CSF), Granulocyte-Monocyte Colony-Stimulating Factor (GM-CSF), Interferon-γ (IFN-γ), Interleukin-1α (IL-1α), IL-1, IL-2, IL-3, IL-4, IL-5, IL-6, IL-7, IL-9, IL-10, IL-12 (p40 segment), IL-12 (p70 segment), IL-13, IL-15, IL-17, Interferon-γ induced protein 10 (IP-10), keratinocyte chemoattractant (KC), leukemia inhibitory factor (LIF), lipopolysaccharide-induced CXC chemokine (LIX), monocyte chemoattractant protein-1 (MCP-1), macrophage colony-stimulating factor (M-CSF), monokine induced by gamma-interferon (MIG), MIP-1α, macrophage inflammatory protein-1β/CCL4 (MIP-1β), MIP-2, regulated upon activation, normal T-cell expressed and presumably secreted (RANTES), tumor necrosis factor-α (TNF-α), vascular endothelial growth factor (VEGF). Human IL-22 was measured using an IL-22 Human ELISA kit (ThermoFisher Scientific). Mouse IL-22 was measured using an IL-22 Mouse/Rat Quantikine ELISA kit (R&D Systems).

C57BL/6 mice [3] = test: LPS acute lung injury mouse model: BAL protein (Bradford assay); type: in vivo; conditions: F-652 4 μg i.v., day 4
Experimental: as §1, with “The Interleukin-22:Fc (F-652) protein is a recombinant fusion protein (F-652) (Evive Biotech, Shanghai, China) with two human IL-22 molecules linked to the Fc portion of human immunoglobulin G2, which extends the half-life of the molecule.” left out
(§2) The BAL fluid was then centrifuged at 500×gravity for 5 minutes. […] To quantify protein in the BAL supernatant, a Bradford protein assay (Bio-Rad Laboratories) was performed. Protein was quantified by measuring absorbance at 595 nm on a BMG Labtech FLUOstar Optima plate reader. […] Human IL-22 was measured using an IL-22 Human ELISA kit (ThermoFisher Scientific). Mouse IL-22 was measured using an IL-22 Mouse/Rat Quantikine ELISA kit (R&D Systems).

mouse IL-22 = test: LPS acute lung injury mouse model: endogenous mouse IL-22 ELISA in BAL; type: in vivo, mice; conditions: low-dose LPS; F-652 4 μg tail vein; day 4; sham non-detectable
Experimental: as §1, with “The Interleukin-22:Fc (F-652) protein is a recombinant fusion protein (F-652) (Evive Biotech, Shanghai, China) with two human IL-22 molecules linked to the Fc portion of human immunoglobulin G2, which extends the half-life of the molecule.” left out
as §2

SARS-CoV-2 = type: cell-based, human; conditions: for sgm-N RNA copies compared to no F-652 treatment: MOI 0.1, 48 hours post challenge
[4] = system: H1N1 influenza (A/PR8 strain); type: in vivo, C57BL/6 mice; conditions: aged mice; data not shown

B1: F-652: recombinant IL-22 dimer consisting of two monomeric subunits each comprising a sequence shown in SEQ ID NO: 24 (protein)
chain 1: APISSHCRLDKSNFQQPYITNRTFMLAKEASLADNNTDVRLIGEKLFHGVSMSERCYLMKQVLNFTLEEVLFPQSDRFQPYMQEVVPFLARLSNRLSTCHIEGDDLHIQRNVQKLKDTVKKLGESGEIKAIGELDLLFMSLRNACIGSGGGSGGGGSGGGGSVECPPCPAPPVAGPSVFLFPPKPKDTLMISRTPEVTCVVVDVSHEDPEVQFNWYVDGVEVHNAKTKPREEQFNSTFRVVSVLTVVHQDWLNGKEYKCKVSNKGLPASIEKTISKTKGQPREPQVYTLPPSREEMTKNQVSLTCLVKGFYPSDIAVEWESNGQPENNYKTTPPMLDSDGSFFLYSKLTVDKSRWQQGNVFSCSVMHEALHNHYTQKSLSLSPGK
chain 2: APISSHCRLDKSNFQQPYITNRTFMLAKEASLADNNTDVRLIGEKLFHGVSMSERCYLMKQVLNFTLEEVLFPQSDRFQPYMQEVVPFLARLSNRLSTCHIEGDDLHIQRNVQKLKDTVKKLGESGEIKAIGELDLLFMSLRNACIGSGGGSGGGGSGGGGSVECPPCPAPPVAGPSVFLFPPKPKDTLMISRTPEVTCVVVDVSHEDPEVQFNWYVDGVEVHNAKTKPREEQFNSTFRVVSVLTVVHQDWLNGKEYKCKVSNKGLPASIEKTISKTKGQPREPQVYTLPPSREEMTKNQVSLTCLVKGFYPSDIAVEWESNGQPENNYKTTPPMLDSDGSFFLYSKLTVDKSRWQQGNVFSCSVMHEALHNHYTQKSLSLSPGK
modifications: homodimer
With B1 the glycocalyx staining intensity ([1]; 0.375 μg/mL F-652 alone, 24 hours, control 6.09) was 5.08 AU, the glycocalyx staining intensity ([1]; 1 μg/mL LPS and 0.375 μg/mL F-652, 24 hours, control 6.09, LPS 5.10) was 5.86 AU and the “BAL total cell counts” value (C57BL/6 mice [2]; high-dose LPS (100 μg intra-tracheal), day 4, sham 3.15×10^6) was 5.40×10^5 cells. The BAL macrophage counts (C57BL/6 mice [2]; high-dose LPS, F-652 4 μg tail vein, day 4, sham 2.72×10^6) was 1.21×10^5 cells, the BAL neutrophil counts (C57BL/6 mice [2]; high-dose LPS, F-652 4 μg tail vein, day 4, sham 8.99×10^5) was 3.69×10^4 cells and the BAL lymphocyte counts (C57BL/6 mice [2]; high-dose LPS, F-652 4 μg tail vein, day 4, sham 213,225) was 2,163 cells. For the same molecule, the “BAL total cell counts” value (C57BL/6 mice [2]; low-dose LPS (33.3 μg intra-tracheal), post-injury day 4, sham 433,889) was 364,444 cells, the BAL lymphocyte count (C57BL/6 mice [2]; low-dose LPS, F-652 4 μg tail vein, day 4, sham 6,556) was 1,864 cells and the BAL neutrophil count (C57BL/6 mice [2]; low-dose LPS, F-652 4 μg tail vein, day 4, sham 6,869) was 1,653 cells. For the same molecule, the BAL macrophage count (C57BL/6 mice [2]; low-dose LPS, F-652 4 μg tail vein, day 4, sham 429,262) was 290,611 cells, the BAL protein (C57BL/6 mice [3]; high-dose LPS injury, sham 0.38) was 0.55 µg/µL and the BAL protein (C57BL/6 mice [3]; low-dose LPS injury, sham 0.25) was 0.15 µg/µL. For the same molecule, the “endogenous mouse IL-22 level in BAL” value (mouse IL-22) was 1.22 pg/mL, the “sgm-N RNA copies compared to no F-652 treatment” value (SARS-CoV-2; post-treatment, 100 ng/mL F-652 basolaterally on the day post-viral infection) was “significantly lower” and the “mapping of RNA-seq reads to the SARS-CoV-2 genome compared to no F-652 treatment” value (SARS-CoV-2; pre-treatment and post-treatment with 100 ng/mL F-652) was “reduced mapping”. The “sgm-N RNA copies compared to no F-652 treatment” value (SARS-CoV-2; pre-treatment, 100 ng/mL F-652 for 18 hours before infection) was “significantly lower” and the “CD8+ cells and KRT5+ cells in lungs compared to PBS control” value [4] was “clear trend of decrease”.
